± gives the standard deviation of the averaged measurements.

In the series the test system is VchCAST RNA-guided transposition machinery (E. coli BL21(DE3) host, lacZ target). As to the kind of experiment: relative integration efficiency (T-RL orientation) vs wild-type transposon end (log2 (normalized fold change)); transposon end mutated: right end (5 bp flank + 75 bp right end); higher = more efficient transposition. The procedure, abridged:
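In E. coli BL21(DE3), a T7-driven effector plasmid was paired with a pUC57 mini-transposon donor containing 1549 left-end or 1849 right-end barcoded transposon variants. Cells grew on plates with 0.1 mM IPTG at 37°C for 18 h. Relative integration efficiency was derived from Illumina reads of genomic integration junctions against input plasmids, as a log-transformed output/input barcode fold change normalised to reference barcodes.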
“ACATTTGTTTCTACAACCATAAAATGATAATTACACCCATAAATTGATAATTATCACACCCATAAATTGATATTGCCTCTGATCATAGTCAGACCAACATTGCTACGACCCGTATTCGCACCGACAC”: the “relative integration efficiency (log2)” value was -1.06 ± 0.14.

In the case of “ACATTTGTTGATACACCCATAAATTGATATTGCCAACCATAAAATGATAATTATCACAACCATAAAATGATAATTACTCTGATCATAGTCAGACCAACATTGCTACGACCCGTATTCGCACCGACAC”, the “relative integration efficiency (log2)” value was -0.123 ± 0.11.

With “ACATTTGTTGATACCACCATCAAATGGTAATTACACCCCTAAATTGATAATTATCACACCCAATTTAACTATAACGCTCTGATCATAGTCAGACCAACATTGCTACGACCCGTATTCGCACCGACAC”, the “relative integration efficiency (log2)” value was -6.57 ± 0.25.

“ACATTTGCTGATAGAACCATTTAATGATAATAACACCCATAAAATGATAATTATCACACCCAATTTAACTATAACGCTCTGATCATAGTCAGACCAACATTGCTACGACCCGTATTCGCACCGACAC”: the “relative integration efficiency (log2)” value was -3.66 ± 0.41.

Take “ACATTTGTTGATACCACCATAAAATGATAATTACACCCCTAAATTGATAATTATCACACCCAATTTAACTATAACGCTCTGATCATAGTCAGACCAACATTGCTACGACCCGTATTCGCACCGACAC”: the “relative integration efficiency (log2)” value was -2.41 ± 0.33.

Consider “ACATTTGTTGATACAACCATTAAATGATAATTACACCCATAAATTGATAATTGTGACACCGAATTTAACTATAACGCTCTGATCATAGTCAGACCAACATTGCTACGACCCGTATTCGCACCGACAC”, for which the “relative integration efficiency (log2)” value is -1.2 ± 0.14.

Turning to “ACATTTGTTGATACAACCATAAAAACATAATTACACCCATAAATTGATAATTATCACACCCATAAATTGATATTGCCTCTGATCATAGTCAGACCAACATTGCTACGACCCGTATTCGCACCGACAC”, the “relative integration efficiency (log2)” value was -1.45 ± 0.33.

As for “ACATTTCTCGATACAACCATAAAATGATAATTACACCCATAAATGGATAATTATCACACCCAATTTAACTATAACGCTCTGATCATAGTCAGACCAACATTGCTACGACCCGTATTCGCACCGACAC”, the “relative integration efficiency (log2)” value was -1.99 ± 0.23.

With “ACATTTGTTCATACAACCATAAAATGATAATTACCACCCATAAATTGATAATTATCACACCCATTTAACTATAACGCTCTGATCATAGTCAGACCAACATTGCTACGACCCGTATTCGCACCGACAC”, the “relative integration efficiency (log2)” value was -1.38 ± 0.23.

“ACATTTGTTCATACAACCATAAAATGATAATTACACCCATAAATGGATAATTATCACCCCCAATTTAACTATAACGCTCTGATCATAGTCAGACCAACATTGCTACGACCCGTATTCGCACCGACAC”: the “relative integration efficiency (log2)” value is -1 ± 0.35.

In the case of “ACATTTGTTGATACTTCCATAAAATGATAATTACACCCATAAATTGATAATTATCACACCCATAAATTGATATTGCCTCTGATCATAGTCAGACCAACATTGCTACGACCCGTATTCGCACCGACAC”, the “relative integration efficiency (log2)” value was -0.637 ± 0.052.

As to “ACATTTGTTGATACAACCATAAAATGATAATTACTCTGACACCCATAAATTGATAATTATCACACCCATAAATTGATATTGCTCATAGTCAGACCAACATTGCTACGACCCGTATTCGCACCGACAC”, the “relative integration efficiency (log2)” value is -2.73 ± 0.083.

As for “ACATTTGTTGATACAACCATCAAATGGTAATTCCACCCATACATTGATAATTATCACACCCAATTTAACTATAACGCTCTGATCATAGTCAGACCAACATTGCTACGACCCGTATTCGCACCGACAC”, the “relative integration efficiency (log2)” value was -4.83 ± 0.15.

For “ACATTTGTCGATACAACCATAAAATGATAATTACACCCATAAATTGATCATTATCACCCCCAATTTAACTATAACGCTCTGATCATAGTCAGACCAACATTGCTACGACCCGTATTCGCACCGACAC”, the “relative integration efficiency (log2)” value is -1.31 ± 0.19.

As to “ACATTTGTTGATACAACCATAAAATGATTATTACACCCATAAATTGATTATTATCACACCCATAAATTGATTTTGCCTCTGATCATAGTCAGACCAACATTGCTACGACCCGTATTCGCACCGACAC”, the “relative integration efficiency (log2)” value is -0.91 ± 0.14.

“ACATTTGTTGATACAACCATAAAATGATAATTACACCCATAAATTGATAATTATCCAACCCATAAATTGATATTGCCTCTGATCATAGTCAGACCAACATTGCTACGACCCGTATTCGCACCGACAC”: the “relative integration efficiency (log2)” value was -0.362 ± 0.18.

As for “ACATTTGTTGATACACCCATAAATTGATAATTACAACCATAAAATGATAATTATCAGTGGGTATTTAACTATAACGCTCTGATCATAGTCAGACCAACATTGCTACGACCCGTATTCGCACCGACAC”, the “relative integration efficiency (log2)” value was -0.217 ± 0.012.

Take “ACATTTGTTGATACAACCATAAAATCATCATTACACCCATCAATTGATAATTATCCCACCCCATTTAACTATAACGCTCTGATCATAGTCAGACCAACATTGCTACGACCCGTATTCGCACCGACAC”: the “relative integration efficiency (log2)” value is -4.36 ± 0.26.

For the sequence “ACATTTGTCGATACAACCCTAAAATGATAATTACACCCATAAATTGATCATTATCACCCCCAATTTAACTATAACGCTCTGATCATAGTCAGACCAACATTGCTACGACCCGTATTCGCACCGACAC”, the “relative integration efficiency (log2)” value was -2.5 ± 0.47.

As to “ACATTTGTTGATACAACCATTAAATGGTAATTCCACCCATAAATTGATAATTATCACACCCAATTTAACTATAACGCTCTGATCATAGTCAGACCAACATTGCTACGACCCGTATTCGCACCGACAC”, the “relative integration efficiency (log2)” value was -1.26 ± 0.19.

As to “ACATTTGTTGATACACCCATAAATTGATATTGCCAACCATAAAATGATAATTATCACACCCATAAATTGATATTGCCTCTGATCATAGTCAGACCAACATTGCTACGACCCGTATTCGCACCGACAC”, the “relative integration efficiency (log2)” value was -0.863 ± 0.071.

With “ACATTAGTCGATACAACCATAAAATGATAATTACACCCATAAATGGATCATTATCACACCCAATTTAACTATAACGCTCTGATCATAGTCAGACCAACATTGCTACGACCCGTATTCGCACCGACAC”, the “relative integration efficiency (log2)” value is -8.21 ± 0.66.

Consider “ACATTTGTTGATACAACCATAAAATGATAAATACACCCATAAATTGATAATAATGACACCGAATTTAACTATAACGCTCTGATCATAGTCAGACCAACATTGCTACGACCCGTATTCGCACCGACAC”, for which the “relative integration efficiency (log2)” value was -1.36 ± 0.43.

Consider “ACATTTGTTGATACAACCATAAAATGATAATTACAACCATAAGTTGATATTTTTCACACCCATAAATTGATATTGCCTCTGATCATAGTCAGACCAACATTGCTACGACCCGTATTCGCACCGACAC”, for which the “relative integration efficiency (log2)” value was -0.349 ± 0.2.

On to “ACATTTGTTGATACAACCATAAGTTGATATTTTCACCCATAAATTGATATTGCTCACAACCATAAGTTGATATTTTCTCTGATCATAGTCAGACCAACATTGCTACGACCCGTATTCGCACCGACAC”, for which the “relative integration efficiency (log2)” value is -0.281 ± 0.16.

As for “ACATTTGTTGATTGAACCATAAAATGATAATTACACCCATAAATTGATAATTATCACACCCATAAATTGATATTGCCTCTGATCATAGTCAGACCAACATTGCTACGACCCGTATTCGCACCGACAC”, the “relative integration efficiency (log2)” value was -0.172 ± 0.032.

For the sequence “ACATTTGTTGATACACCCATAAATTGATATTGCCAACCATAAAATGATAATTATCACAACCATAAAGTGATATTTACTCTGATCATAGTCAGACCAACATTGCTACGACCCGTATTCGCACCGACAC”, the “relative integration efficiency (log2)” value is -0.59 ± 0.12.

With “ACATTTGTTGATACACCCATAAATTGATATTGCCAACCATAAAATGATAATTATCACACCCATAAATTGATAATTACTCTGATCATAGTCAGACCAACATTGCTACGACCCGTATTCGCACCGACAC”, the “relative integration efficiency (log2)” value is -0.642 ± 0.2.

“ACATTTGTTGATACAACCATAAAATGATAATTACACCCATAAATTGATAATTATCACACCCATAAATTGATATTGCCGAGGATCATAGTCAGACCAACATTGCTACGACCCGTATTCGCACCGACAC”: the “relative integration efficiency (log2)” value was determined as 0.325 ± 0.077.

As for “AGTAATGTTGATACAACCATAAAATGATAATTACACCCATAAATTGATAATTATCACACCCATAAATTGATATTGCCTCTGATCATAGTCAGACCAACATTGCTACGACCCGTATTCGCACCGACAC”, the “relative integration efficiency (log2)” value was -0.121 ± 0.05.

In the case of “ACATTTGTTGATAAAACCATACGTTGATTTTAAGAAACCATACGCTGAAATAATCACACCCATAAATTGATATTGCCTCTGATCATAGTCAGACCAACATTGCTACGACCCGTATTCGCACCGACAC”, the “relative integration efficiency (log2)” value is -6.06 ± 0.18.

In the case of “ACATTTGTTGATACAACCATAAAATGATAATTACACCCATAAATTGATAATTATCACACCCATAAATTGATATTGCCTCTGATCATATTTAATAATTAATTTATATATTTAAGTCAGGCACCGACAC”, the “relative integration efficiency (log2)” value is 0.707 ± 0.19.

These data come from the supplement of paper PMC10201428.
